Experimental data from patent US20190360057.

Molecular target: ErbB2 (UniProt P04626)

**Q.** Src was tested. Which “Src activity (Src kinase assay, Src-Y416 phosphorylation) after trastuzumab treatment” value did it give?
**A.** Its value is “trastuzumab inhibited Src activity in ErbB2 overexpressing cells”.
